Legend:
[1] = target: human CD40 on cells (human) (UniProt P25942); test: FACS on human B cells (CD19+ gate), PE anti-human IgG Fc, MFI
[2] = target: human CD40-His protein (human) (UniProt P25942); test: ELISA on coated human CD40-His (1.0 ug/ml), anti-human IgG-HRP, OD450
[3] = target: human CD40 on cells (human) (UniProt P25942); test: FACS on Jurkat cells overexpressing human CD40, PE anti-human IgG, MFI
[4] = target: human CD40 on cells (human) (UniProt P25942); test: as above; remark: listed apart in the source

Sequence of human CD40 on cells (human) (P25942 21-277): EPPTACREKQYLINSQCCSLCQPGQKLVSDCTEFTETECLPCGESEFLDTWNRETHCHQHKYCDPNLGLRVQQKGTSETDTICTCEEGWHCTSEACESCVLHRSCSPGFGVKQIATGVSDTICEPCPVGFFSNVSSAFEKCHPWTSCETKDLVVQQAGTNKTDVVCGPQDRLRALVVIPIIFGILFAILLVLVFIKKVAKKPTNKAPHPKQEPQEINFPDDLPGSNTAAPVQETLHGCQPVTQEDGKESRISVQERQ
Sequence of selicrelumab (antibody) (VH): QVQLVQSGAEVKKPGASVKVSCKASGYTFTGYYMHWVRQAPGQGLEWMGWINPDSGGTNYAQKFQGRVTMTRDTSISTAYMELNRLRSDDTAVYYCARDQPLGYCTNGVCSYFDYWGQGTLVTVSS
Sequence of selicrelumab (antibody) (VL): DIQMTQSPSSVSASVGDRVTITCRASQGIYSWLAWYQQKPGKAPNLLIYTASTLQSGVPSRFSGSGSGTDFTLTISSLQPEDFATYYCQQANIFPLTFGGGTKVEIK
Sequence of human CD40-His protein (human) (P25942 21-193 limits assumed): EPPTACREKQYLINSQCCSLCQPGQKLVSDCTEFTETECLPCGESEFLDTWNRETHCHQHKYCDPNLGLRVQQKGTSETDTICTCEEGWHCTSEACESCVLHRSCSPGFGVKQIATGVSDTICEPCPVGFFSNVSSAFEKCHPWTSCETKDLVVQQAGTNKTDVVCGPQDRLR

selicrelumab (antibody)
EC50 (read off the curve) [1]: 1 nM
EC50 (read off the curve) [2]: 0.7 nM
EC50 (read off the curve) [3]: 1 nM
EC50 (read off the curve) [4]: 0.9 nM

— patent publication US20240209109A1
